According to US20190218277A1 (Chugai, published 2019):
Where two headings read alike, the source gives them in different places.

T1: human FcγRIIIb (NA1) (human, UniProt O75015 17-200)
T1 construct: also called human FcγR3b allelic variant NA1
T1 chain: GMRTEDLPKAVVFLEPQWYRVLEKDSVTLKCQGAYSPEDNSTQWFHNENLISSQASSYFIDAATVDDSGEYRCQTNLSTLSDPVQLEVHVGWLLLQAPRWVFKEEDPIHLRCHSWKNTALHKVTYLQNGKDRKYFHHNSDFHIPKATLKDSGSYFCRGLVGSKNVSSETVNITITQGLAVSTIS

T2: mouse FcγRIII (mouse, UniProt P08508 31-215)
T2 construct: also called mFcγRIII; mouse FcγR3
T2 chain: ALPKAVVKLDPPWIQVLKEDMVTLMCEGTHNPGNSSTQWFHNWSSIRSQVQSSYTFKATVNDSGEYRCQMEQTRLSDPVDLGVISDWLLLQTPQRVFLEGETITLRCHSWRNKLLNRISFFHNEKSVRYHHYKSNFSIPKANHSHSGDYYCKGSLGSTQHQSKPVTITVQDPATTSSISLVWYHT

T3: human FcγRIIb (human, UniProt P31994 43-217)
T3 construct: also called human FcγR2b
T3 sequence: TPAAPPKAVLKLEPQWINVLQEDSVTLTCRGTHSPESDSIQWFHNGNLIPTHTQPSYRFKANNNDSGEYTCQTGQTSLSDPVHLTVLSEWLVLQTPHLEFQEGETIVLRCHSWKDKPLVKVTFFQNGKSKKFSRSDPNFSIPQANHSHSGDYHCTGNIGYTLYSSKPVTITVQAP

T4: mouse FcγRIV (mouse, UniProt A0A0B4J1G0 21-203)
T4 construct: also called mFcγRIV; mouse FcγR4
T4 sequence: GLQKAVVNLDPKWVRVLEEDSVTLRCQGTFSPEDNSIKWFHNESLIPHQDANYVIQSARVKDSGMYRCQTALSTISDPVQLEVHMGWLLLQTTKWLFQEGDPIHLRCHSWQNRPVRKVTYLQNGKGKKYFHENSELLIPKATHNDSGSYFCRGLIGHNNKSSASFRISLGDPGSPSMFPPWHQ

T5: mouse FcγRI (mouse, UniProt P26151 25-297)
T5 construct: also called mFcγRI; mouse FcγR1
T5 sequence: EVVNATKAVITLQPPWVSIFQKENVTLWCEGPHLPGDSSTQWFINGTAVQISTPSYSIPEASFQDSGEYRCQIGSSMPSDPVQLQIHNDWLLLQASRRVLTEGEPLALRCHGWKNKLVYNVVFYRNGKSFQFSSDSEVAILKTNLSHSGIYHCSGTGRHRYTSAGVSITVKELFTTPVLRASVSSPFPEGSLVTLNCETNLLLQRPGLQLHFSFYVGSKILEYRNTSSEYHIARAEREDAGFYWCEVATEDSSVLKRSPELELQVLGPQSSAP


What was measured:
[1] = molecular target: T6, Recombinant soluble E protein (0.8E-His) from DENV-3 (DENV-3, UniProt P27915 281-673); test: SPR, Biacore T200
T6 construct: also called DENV-3 E protein; DV3

[2] = molecular target: T7, Recombinant soluble E protein (0.8E-His) from DENV-4 (DENV-4, UniProt P09866 280-674)
T7 construct: also called DENV-4 E protein; DV4

[3] = molecular target: T8, Recombinant soluble E protein (0.8E-His) from DENV-2 (DENV-2, UniProt P14340 281-675)
T8 construct: also called DENV-2 E protein; DV2

[4] = molecular target: T9, Recombinant soluble E protein (0.8E-His) from DENV-1 (DENV-1, UniProt P27909 281-675)
T9 construct: also called DENV-1 E protein; DV1

human FcγRIIIb (NA1) = molecular target: T1, human FcγRIIIb (NA1); test: SPR (Biacore T200, pH 7.4, 25 °C): His-tagged FcγR captured by anti-His antibody; antibody injected at 100 nM alone (Ab alone) or as 1:1 complex with trimeric CD154 (CD154 IC); binding level / capture level [G]
mouse FcγRIII = molecular target: T2, mouse FcγRIII; test: SPR (Biacore T200, pH 7.4, 25 °C): His-tagged FcγR captured by anti-His antibody; antibody injected at 100 nM alone (Ab alone) or as 1:1 complex with trimeric CD154 (CD154 IC); binding level / capture level [C]
human FcγRIIb = molecular target: T3, human FcγRIIb; test: SPR (Biacore T200, pH 7.4, 25 °C): His-tagged FcγR captured by anti-His antibody; antibody injected at 100 nM alone (Ab alone) or as 1:1 complex with trimeric CD154 (CD154 IC); binding level / capture level [D]
human C1q (Calbiochem) [5] = molecular target: T10, human C1q (Calbiochem) (human, UniProt P02745 23-245; P02746 28-253; P02747 29-245); test: ELISA: antibody coated on the plate at the concentration shown, human C1q added, detected with HRP anti-human C1q, OD 450 nm
T10 sequence (P02745 23-245 limits assumed, chain 1 of 3): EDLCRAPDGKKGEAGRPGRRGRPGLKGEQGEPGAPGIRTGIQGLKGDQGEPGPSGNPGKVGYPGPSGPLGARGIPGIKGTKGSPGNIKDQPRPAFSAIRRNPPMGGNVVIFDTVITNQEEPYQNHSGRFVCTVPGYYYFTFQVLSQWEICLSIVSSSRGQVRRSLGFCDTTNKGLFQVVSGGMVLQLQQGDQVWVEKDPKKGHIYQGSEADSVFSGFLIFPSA
T10 sequence (P02746 28-253 limits assumed, chain 2 of 3): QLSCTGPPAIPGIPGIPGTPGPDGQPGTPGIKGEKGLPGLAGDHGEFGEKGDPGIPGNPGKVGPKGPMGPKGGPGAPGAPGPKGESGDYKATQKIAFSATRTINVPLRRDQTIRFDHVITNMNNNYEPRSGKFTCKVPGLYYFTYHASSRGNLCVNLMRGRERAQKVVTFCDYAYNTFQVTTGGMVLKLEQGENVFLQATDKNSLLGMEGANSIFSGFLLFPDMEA
T10 sequence (P02747 29-245 limits assumed, chain 3 of 3): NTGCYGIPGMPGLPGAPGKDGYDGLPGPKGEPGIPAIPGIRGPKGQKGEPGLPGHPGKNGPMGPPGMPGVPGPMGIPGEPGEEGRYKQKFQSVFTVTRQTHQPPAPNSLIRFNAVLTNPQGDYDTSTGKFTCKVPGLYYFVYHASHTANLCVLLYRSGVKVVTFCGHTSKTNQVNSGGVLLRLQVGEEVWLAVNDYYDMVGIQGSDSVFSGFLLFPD

human FcγRIIIa (158V) = molecular target: T11, human FcγRIIIa (158V) (human, UniProt P08637 17-208); test: SPR (Biacore T200, pH 7.4, 25 °C): His-tagged FcγR captured by anti-His antibody; antibody injected at 100 nM alone (Ab alone) or as 1:1 complex with trimeric CD154 (CD154 IC); binding level / capture level [F]
T11 construct: also called human FcγR3a allelic variant 158V

human FcγRIa = molecular target: T12, human FcγRIa (human, UniProt P12314 16-292); test: SPR (Biacore T200, pH 7.4, 25 °C): His-tagged FcγR captured by anti-His antibody; antibody injected at 100 nM alone (Ab alone) or as 1:1 complex with trimeric CD154 (CD154 IC); binding level / capture level [A]
T12 construct: also called human FcγR1a
T12 sequence (P12314 16-292 limits assumed): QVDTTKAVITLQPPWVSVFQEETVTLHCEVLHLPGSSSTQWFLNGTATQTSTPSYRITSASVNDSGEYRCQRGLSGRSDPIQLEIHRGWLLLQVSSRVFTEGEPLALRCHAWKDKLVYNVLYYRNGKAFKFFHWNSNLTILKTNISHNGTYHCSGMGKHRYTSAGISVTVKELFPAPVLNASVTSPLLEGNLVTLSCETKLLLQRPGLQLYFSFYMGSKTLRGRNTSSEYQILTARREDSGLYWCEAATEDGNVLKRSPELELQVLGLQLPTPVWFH

mouse FcγRIV = molecular target: T4, mouse FcγRIV; test: SPR (Biacore T200, pH 7.4, 25 °C): His-tagged FcγR captured by anti-His antibody; antibody injected at 100 nM alone (Ab alone) or as 1:1 complex with trimeric CD154 (CD154 IC); binding level / capture level [D]
mouse FcγRI = molecular target: T5, mouse FcγRI; test: SPR (Biacore T200, pH 7.4, 25 °C): His-tagged FcγR captured by anti-His antibody; antibody injected at 100 nM alone (Ab alone) or as 1:1 complex with trimeric CD154 (CD154 IC); binding level / capture level [A]
human C1q (Calbiochem) [6] = molecular target: T10, human C1q (Calbiochem); test: ELISA: antibody coated on the plate at the concentration shown, human C1q added, detected with HRP anti-human C1q, OD 450 nm; remark: listed apart in the source
[7] = molecular target: mouse C1q (from 10% mouse plasma) (mouse, UniProt P98086 23-245; P14106 26-253; Q02105 30-246); test: ELISA: antibody coated on the plate at the concentration shown, 10% mouse plasma added, detected with biotinylated anti-mouse C1q and streptavidin-HRP, OD 405 nm
Chain of mouse C1q (from 10% mouse plasma) (P98086 23-245 limits assumed, chain 1 of 3): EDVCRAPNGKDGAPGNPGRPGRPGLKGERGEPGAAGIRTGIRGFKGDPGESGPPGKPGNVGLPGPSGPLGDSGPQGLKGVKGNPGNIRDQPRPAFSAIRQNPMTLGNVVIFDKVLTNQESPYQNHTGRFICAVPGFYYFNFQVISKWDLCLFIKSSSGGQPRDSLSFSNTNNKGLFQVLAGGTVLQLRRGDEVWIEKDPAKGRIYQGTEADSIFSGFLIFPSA
Chain of mouse C1q (from 10% mouse plasma) (P14106 26-253 limits assumed, chain 2 of 3): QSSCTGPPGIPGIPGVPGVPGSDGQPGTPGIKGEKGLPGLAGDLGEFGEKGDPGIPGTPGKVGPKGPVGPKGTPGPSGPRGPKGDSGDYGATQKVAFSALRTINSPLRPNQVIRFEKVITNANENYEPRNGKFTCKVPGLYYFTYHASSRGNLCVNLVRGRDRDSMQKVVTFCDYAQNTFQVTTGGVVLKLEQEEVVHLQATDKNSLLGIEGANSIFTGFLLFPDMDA
Chain of mouse C1q (from 10% mouse plasma) (Q02105 30-246 limits assumed, chain 3 of 3): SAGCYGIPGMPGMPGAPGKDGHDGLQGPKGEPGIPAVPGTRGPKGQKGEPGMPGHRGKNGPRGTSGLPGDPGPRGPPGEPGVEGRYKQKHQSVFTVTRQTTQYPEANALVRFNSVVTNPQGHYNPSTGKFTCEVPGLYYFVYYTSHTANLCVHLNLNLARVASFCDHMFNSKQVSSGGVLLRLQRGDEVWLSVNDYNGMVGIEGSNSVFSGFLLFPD

Row | Binder | binding result [1] | Kd [2] [nM] | Kd [3] [nM] | Kd [4] [nM] | binding result (human FcγRIa) | further results
1 | DG_3CH912-SG182/3CL-SK1 (antibody, human IgG1, kappa, V domains shown) VH: QVQLVQSGPDVEKPGASVKVSCKASGYTFTSNYIHWVRQAPGQGLEWMGVINPRGGSRASAQKFQGRITMTRDTSTSTVYMELSSLRSEDTAVYYCARGGRALFYDSYTTPFDGGSWWFDPWGQGSLVTVSS VL: DIQLTQSPSSLSASVGDRVTFTCQASQDIRKYLNWYQQKPGKAPKLLIYDASNLKTGVPSRFSGSGSGTDFTFTISSLQPEDVATYYCQQFDDLPITFGQGTRLQIKR | binds | 8.78 | 0.811 | 1.85 |  | 
2 | DG_3CH955-SG182/3CL499-SK1 (antibody, human IgG1, kappa, V domains shown) VH: QVQLVQSGPDVEKPGASVKVSCKASGYTFTSNYIHWVRQAPGQGLEWMGVINPRGGSRRSAQKFQGRITMTRDTSTSTVYMELSSLRSEDTAVYYCARGGRALFYDSYTTPRDLGSWWFDPWGQGSLVTVSS VL: DIQLTQSPSSLSASVGDRVTFTCQASQDIRKYLNWYQQKPGKAPKLLIYDASNLKFGVPSRFSGSGSGTDFTFTISSLQPEDVATYYCQQFDALPITFGQGTRLQIKR | binds | 8.26 | 1.03 | 1.26 |  | 
3 | DG_3CH955-SG182/3CL563-SK1 (antibody, human IgG1, kappa, V domains shown) VH: QVQLVQSGPDVEKPGASVKVSCKASGYTFTSNYIHWVRQAPGQGLEWMGVINPRGGSRRSAQKFQGRITMTRDTSTSTVYMELSSLRSEDTAVYYCARGGRALFYDSYTTPRDLGSWWFDPWGQGSLVTVSS VL: DIQLTQSPSSLSASVGDRVTFTCQASQDIRQYLNWYQQKPGKAPKLLIYDASNLKFGVPSRFSGSGSGTDFTFTISSLQPEDVATYYCQQFSALPITFGQGTRLQIKR | binds | 12.2 | 1.04 | 1.91 |  | 
4 | DG_3CH953-SG182/3CL563-SK1 (antibody, human IgG1, kappa, V domains shown) VH: QVQLVQSGPDVEKPGASVKVSCKASGYTFTSNYIHWVRQAPGQGLEWMGVINPRGGSRRSAQKFQGRITMTRDTSTSTVYMELSSLRSEDTAVYYCARGGRALFYDSYTTPFDGGSWWFDPWGQGSLVTVSS VL: DIQLTQSPSSLSASVGDRVTFTCQASQDIRQYLNWYQQKPGKAPKLLIYDASNLKFGVPSRFSGSGSGTDFTFTISSLQPEDVATYYCQQFSALPITFGQGTRLQIKR | binds | 8.21 | 0.922 | 1.88 |  | 
5 | Anti-CD154 antibody (SLAPH0336a/SLAPL0336a) with Fc variant LALA+EFT+AE (SG1089) (antibody, human IgG1, kappa) heavy: EVQLVESGGGSVKPGGSLKLSCAASGFTFSDHYMYWVRQTPEKRLEWVAIISGGGSYTSYPDSMKGRFTISRDNAKNILHLQMSSLKSEDTAMYYCTRESNGKPGFAYWGQGTLVTVSAASTKGPSVFPLAPSSKSTSGGTAALGCLVKDYFPEPVTVSWNSGALTSGVHTFPAVLQSSGLYSLSSVVTVPSSSLGTQTYICNVNHKPSNTKVDKRVEPKSCDKTHTCPPCPAPEAAAGPSVFLFPPKPKDTLMISRTPEVTCVVVDVEFEDPEVKFNWYVDGVEVHNAKTKPREEQYNSTYRVVSVLTVLHQDWLNGKEYKCKVTNKALPAPEEKTISKAKGQPREPQVYTLPPSREEMTKNQVSLTCLVKGFYPSDIAVEWESNGQPENNYKTTPPVLDSDGSFFLYSKLTVDKSRWQQGNVFSCSVMHEALHNHYTQKSLSLSP light: not shown |  |  |  |  | binds | binding result (human FcγRIIIb (NA1)): no binding (tested: 100 nM); binding result (mouse FcγRIII): binds; binding result (human FcγRIIb): binds; EC50 (read off the curve) (human C1q (Calbiochem) [5]): ~3 µg/mL; binding result (human FcγRIIIa (158V)): binds; binding result (mouse FcγRIV): binds; binding result (mouse FcγRI): no binding (tested: 100 nM)
6 | Anti-CD154 antibody (SLAPH0336a/SLAPL0336a) with Fc variant LALA+KWES (SG1088) (antibody, human IgG1, kappa, L234A L235A) heavy: EVQLVESGGGSVKPGGSLKLSCAASGFTFSDHYMYWVRQTPEKRLEWVAIISGGGSYTSYPDSMKGRFTISRDNAKNILHLQMSSLKSEDTAMYYCTRESNGKPGFAYWGQGTLVTVSAASTKGPSVFPLAPSSKSTSGGTAALGCLVKDYFPEPVTVSWNSGALTSGVHTFPAVLQSSGLYSLSSVVTVPSSSLGTQTYICNVNHKPSNTKVDKRVEPKSCDKTHTCPPCPAPEAAGGPSVFLFPPKPKDTLMISRTPEVTCVVVDVSHEDPEVKFNWYVDGVEVHNAKTKPREEQYNSTYRVVSVLTVLHQDWLNGKEYKCKVSNWALPAPISKTISKAKGQPREPQVYTLPPSREEMTKNQVSLTCLVKGFYPSDIAVEWESNGQPENNYKTTPPVLDSDGSFFLYSKLTVDKSRWQQGNVFSCSVMHEALHNHYTQKSLSLSP light: not shown |  |  |  |  | binds | EC50 (read off the curve) (human C1q (Calbiochem) [5]): ~2 µg/mL; EC50 (read off the curve) (human C1q (Calbiochem) [6]): ~3 µg/mL
7 | Anti-CD154 antibody (SLAPH0336a/SLAPL0336a) with Fc variant LALA+KAES (SG1095) (antibody, human IgG1, kappa, L234A L235A) heavy: EVQLVESGGGSVKPGGSLKLSCAASGFTFSDHYMYWVRQTPEKRLEWVAIISGGGSYTSYPDSMKGRFTISRDNAKNILHLQMSSLKSEDTAMYYCTRESNGKPGFAYWGQGTLVTVSAASTKGPSVFPLAPSSKSTSGGTAALGCLVKDYFPEPVTVSWNSGALTSGVHTFPAVLQSSGLYSLSSVVTVPSSSLGTQTYICNVNHKPSNTKVDKRVEPKSCDKTHTCPPCPAPEAAGGPSVFLFPPKPKDTLMISRTPEVTCVVVDVSHEDPEVKFNWYVDGVEVHNAKTKPREEQYNSTYRVVSVLTVLHQDWLNGKEYKCKVSNAALPAPISKTISKAKGQPREPQVYTLPPSREEMTKNQVSLTCLVKGFYPSDIAVEWESNGQPENNYKTTPPVLDSDGSFFLYSKLTVDKSRWQQGNVFSCSVMHEALHNHYTQKSLSLSP light: not shown |  |  |  |  | binds | binding result (human FcγRIIIa (158V)): binds; binding result [7]: binds; binding result (human C1q (Calbiochem) [6]): binds
